Data reported in paper PMC2894445.

Columns and labels:
[1] = target: Nup205 (Xenopus laevis (endogenous in Xenopus egg cytosol)); experiment: co-IP
[2] = target: Nup188 (Xenopus laevis (endogenous in Xenopus egg cytosol)); experiment: co-IP

B1: Nup93 (natural protein)
chain: MDGEGFGELLQQAEQLAAETEGVTELPHVERNLQEIQQAGERLRSKTMTRTSQESANVKASVLLGSRGLDISHISQRLESLSAATTFEPLEPVKDTDIQGFLKNEKDNALLSAIEESRKRTFVMAEEYHRESMLVEWEQVKQRVLHTLLASGEDALDFTQESETSYISESGAPGRSSLDNVEMAYARQMYMYNEKVVSGHLQPSLVDLCTEAAERLDDKNVSDLWVMVKQMTDVPLIPASDTLKSRCSGQMQMAFVRQALNYLEQSYKNYTLISVFANLQQAQLGGVPGTYNLVRSFLNIRLPTPIPGLQDGEIEGYPVWALIYYCMRCGDLMAAQQVVNRAQHQLGDFKNCFQEYIHNKDRRLSPTTENKLRLHYRRAVRASTDPYKRAVYCIIGRCDVSDNHSEVADKTEDYLWLKLSQVCFEDEANSSPQDRLTLPQFQKQLFEDYGESHFAVNQQPYLYFQVLFLTAQFEAAIAFLFRLERTRCHAVHVALALFELKLLLKSTGQSAQLLSQEPGEPQGVRRLNFIRLLMLYTRKFEPTDPREALQYFYFLRNEKDNQGESMFLRCVSELVIESREFDMLLGKLEKDGSRKPGAIDKFTRDTKTIINKVASVAENKGLFEEAAKLYDLAKNPDKVLELTNKLLSPVVSQISAPQSNRERLKNMALAIAERYKSQGVSAEKSINSTFYLLLDLITFFDEYHAGHIDLSFDVIERLKLVPLSQDSVEERVAAFRNFSDEIRHNLSEILLATMNILFTQYKRLKGSGPTTLGRPQRVQEDKDSVLRSQARALITFAGMIPYRMSGDTNARLVQMEVLMN
- percent of Nup93 co-immunoprecipitated [1]: 45%
- percent of Nup93 co-immunoprecipitated [2]: 45%
